Target: SARS-CoV-2 core replication-transcription complex (nsp12 polymerase with nsp7 and nsp8), elongating on RNA (SARS-CoV-2) (UniProt P0DTD1)
Assay: single-molecule magnetic tweezers (RNA synthesis traces)

Substance: SARS-CoV-2 nsp13 helicase (wild type) (from UniProt P0DTD1 5325-5925) (enzyme)
- KA of the first helicase (nsp13.1) binding to the core RTC: 0.22 nM⁻¹
- KA of the second helicase (nsp13.2) binding to RTC-nsp13.1: 0.47 nM⁻¹

From publication PMC13190607
